For the experiment, the target named is human corticotropin-releasing factor 2α (CRF2 α receptor) (human), Q13324. Briefly: cell-based or functional assay.

Starred links: 1 amine or outer side, 2 acyl side, 3 side chain; linkers in the order of their positions; H or OH if unused. Non-standard residues stand in square brackets, D forms with d. Groups on a side chain read outwards from the residue. No end group written: not given here. *: point of attachment. C20 diacid = O=C(O)CCCCCCCCCCCCCCCCCCC(=O)*; C18 diacid = O=C(O)CCCCCCCCCCCCCCCCC(=O)*; γGlu = O=C(O)[C@H](CCC(=O)[*:2])N[*:1]; Palmitoyl = CCCCCCCCCCCCCCCC(=O)*; AEEA = NCCOCCOCC(=O)O; Aib = CC(C)(N)C(=O)O

This note sets out measurements from patent publication US12679878B2, “CRF2 receptor agonists and their use in therapy” (SANOFI, priority 2020, dated 2026).

Chain of human corticotropin-releasing factor 2α (CRF2 α receptor) (human), Q13324 (Q13324 20-411): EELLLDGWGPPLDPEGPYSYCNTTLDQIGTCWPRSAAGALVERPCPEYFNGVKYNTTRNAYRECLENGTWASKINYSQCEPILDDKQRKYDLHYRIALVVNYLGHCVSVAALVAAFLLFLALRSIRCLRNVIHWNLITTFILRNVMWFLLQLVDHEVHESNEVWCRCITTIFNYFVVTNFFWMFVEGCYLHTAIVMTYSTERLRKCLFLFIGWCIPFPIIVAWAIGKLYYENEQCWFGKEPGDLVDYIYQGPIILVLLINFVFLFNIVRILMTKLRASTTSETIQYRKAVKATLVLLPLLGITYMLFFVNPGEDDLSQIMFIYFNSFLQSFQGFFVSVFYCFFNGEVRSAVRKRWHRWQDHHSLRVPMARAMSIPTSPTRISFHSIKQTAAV

B1: SEQ ID NO: 79 (peptide)
peptide: IVLSLDVPIKLK([AEEA-AEEA-γGlu-C18 diacid])QILLEQEKQK[Aib]QREQAETNKQILAQV-NH2
modifications: N-terminus assumed
SMILES: CC[C@H](C)[C@H](N)C(=O)N[C@H](C(=O)N[C@@H](CC(C)C)C(=O)N[C@@H](CO)C(=O)N[C@@H](CC(C)C)C(=O)N[C@@H](CC(=O)O)C(=O)N[C@H](C(=O)N1CCC[C@H]1C(=O)N[C@H](C(=O)N[C@@H](CCCCN)C(=O)N[C@@H](CC(C)C)C(=O)N[C@@H](CCCCNC(=O)COCCOCCNC(=O)COCCOCCNC(=O)CC[C@H](NC(=O)CCCCCCCCCCCCCCCCC(=O)O)C(=O)O)C(=O)N[C@@H](CCC(N)=O)C(=O)N[C@H](C(=O)N[C@@H](CC(C)C)C(=O)N[C@@H](CC(C)C)C(=O)N[C@@H](CCC(=O)O)C(=O)N[C@@H](CCC(N)=O)C(=O)N[C@@H](CCC(=O)O)C(=O)N[C@@H](CCCCN)C(=O)N[C@@H](CCC(N)=O)C(=O)N[C@@H](CCCCN)C(=O)NC(C)(C)C(=O)N[C@@H](CCC(N)=O)C(=O)N[C@@H](CCCNC(=N)N)C(=O)N[C@@H](CCC(=O)O)C(=O)N[C@@H](CCC(N)=O)C(=O)N[C@@H](C)C(=O)N[C@@H](CCC(=O)O)C(=O)N[C@H](C(=O)N[C@@H](CC(N)=O)C(=O)N[C@@H](CCCCN)C(=O)N[C@@H](CCC(N)=O)C(=O)N[C@H](C(=O)N[C@@H](CC(C)C)C(=O)N[C@@H](C)C(=O)N[C@@H](CCC(N)=O)C(=O)N[C@H](C(N)=O)C(C)C)[C@@H](C)CC)[C@@H](C)O)[C@@H](C)CC)[C@@H](C)CC)C(C)C)C(C)C
Take B1: the EC50 [nM], 0% HSA is 0.46 nM.

B2: SEQ ID NO: 80 (peptide)
peptide: IVLSLDVPTKLK([AEEA-AEEA-γGlu-C20 diacid])QILLEQERQKKQREQAETN[Aib]QILAQV-NH2
modifications: N-terminus assumed
SMILES: CC[C@H](C)[C@H](N)C(=O)N[C@H](C(=O)N[C@@H](CC(C)C)C(=O)N[C@@H](CO)C(=O)N[C@@H](CC(C)C)C(=O)N[C@@H](CC(=O)O)C(=O)N[C@H](C(=O)N1CCC[C@H]1C(=O)N[C@H](C(=O)N[C@@H](CCCCN)C(=O)N[C@@H](CC(C)C)C(=O)N[C@@H](CCCCNC(=O)COCCOCCNC(=O)COCCOCCNC(=O)CC[C@H](NC(=O)CCCCCCCCCCCCCCCCCCC(=O)O)C(=O)O)C(=O)N[C@@H](CCC(N)=O)C(=O)N[C@H](C(=O)N[C@@H](CC(C)C)C(=O)N[C@@H](CC(C)C)C(=O)N[C@@H](CCC(=O)O)C(=O)N[C@@H](CCC(N)=O)C(=O)N[C@@H](CCC(=O)O)C(=O)N[C@@H](CCCNC(=N)N)C(=O)N[C@@H](CCC(N)=O)C(=O)N[C@@H](CCCCN)C(=O)N[C@@H](CCCCN)C(=O)N[C@@H](CCC(N)=O)C(=O)N[C@@H](CCCNC(=N)N)C(=O)N[C@@H](CCC(=O)O)C(=O)N[C@@H](CCC(N)=O)C(=O)N[C@@H](C)C(=O)N[C@@H](CCC(=O)O)C(=O)N[C@H](C(=O)N[C@@H](CC(N)=O)C(=O)NC(C)(C)C(=O)N[C@@H](CCC(N)=O)C(=O)N[C@H](C(=O)N[C@@H](CC(C)C)C(=O)N[C@@H](C)C(=O)N[C@@H](CCC(N)=O)C(=O)N[C@H](C(N)=O)C(C)C)[C@@H](C)CC)[C@@H](C)O)[C@@H](C)CC)[C@@H](C)O)C(C)C)C(C)C
Molecule B2 gave an EC50 [nM], 0% HSA of 0.9 nM and an EC50 [nM], 0.1% HSA of 92.5 nM.

B3: SEQ ID NO: 77 (peptide)
peptide: IVLSLDVPIKLK([AEEA-AEEA-γGlu-C18 diacid])QILLKQERQKKQRQKAETNKQILAQV-NH2
modifications: N-terminus assumed
SMILES: CC[C@H](C)[C@H](N)C(=O)N[C@H](C(=O)N[C@@H](CC(C)C)C(=O)N[C@@H](CO)C(=O)N[C@@H](CC(C)C)C(=O)N[C@@H](CC(=O)O)C(=O)N[C@H](C(=O)N1CCC[C@H]1C(=O)N[C@H](C(=O)N[C@@H](CCCCN)C(=O)N[C@@H](CC(C)C)C(=O)N[C@@H](CCCCNC(=O)COCCOCCNC(=O)COCCOCCNC(=O)CC[C@H](NC(=O)CCCCCCCCCCCCCCCCC(=O)O)C(=O)O)C(=O)N[C@@H](CCC(N)=O)C(=O)N[C@H](C(=O)N[C@@H](CC(C)C)C(=O)N[C@@H](CC(C)C)C(=O)N[C@@H](CCCCN)C(=O)N[C@@H](CCC(N)=O)C(=O)N[C@@H](CCC(=O)O)C(=O)N[C@@H](CCCNC(=N)N)C(=O)N[C@@H](CCC(N)=O)C(=O)N[C@@H](CCCCN)C(=O)N[C@@H](CCCCN)C(=O)N[C@@H](CCC(N)=O)C(=O)N[C@@H](CCCNC(=N)N)C(=O)N[C@@H](CCC(N)=O)C(=O)N[C@@H](CCCCN)C(=O)N[C@@H](C)C(=O)N[C@@H](CCC(=O)O)C(=O)N[C@H](C(=O)N[C@@H](CC(N)=O)C(=O)N[C@@H](CCCCN)C(=O)N[C@@H](CCC(N)=O)C(=O)N[C@H](C(=O)N[C@@H](CC(C)C)C(=O)N[C@@H](C)C(=O)N[C@@H](CCC(N)=O)C(=O)N[C@H](C(N)=O)C(C)C)[C@@H](C)CC)[C@@H](C)O)[C@@H](C)CC)[C@@H](C)CC)C(C)C)C(C)C
With B3, the EC50 [nM], 0% HSA is 0.33 nM.

B4: SEQ ID NO: 81 (peptide)
peptide: IVLSLDVPIKLK([AEEA-AEEA-γGlu-C20 diacid])QILLEQEKQK[Aib]QREQAETNKQILAQV-NH2
modifications: N-terminus assumed
SMILES: CC[C@H](C)[C@H](N)C(=O)N[C@H](C(=O)N[C@@H](CC(C)C)C(=O)N[C@@H](CO)C(=O)N[C@@H](CC(C)C)C(=O)N[C@@H](CC(=O)O)C(=O)N[C@H](C(=O)N1CCC[C@H]1C(=O)N[C@H](C(=O)N[C@@H](CCCCN)C(=O)N[C@@H](CC(C)C)C(=O)N[C@@H](CCCCNC(=O)COCCOCCNC(=O)COCCOCCNC(=O)CC[C@H](NC(=O)CCCCCCCCCCCCCCCCCCC(=O)O)C(=O)O)C(=O)N[C@@H](CCC(N)=O)C(=O)N[C@H](C(=O)N[C@@H](CC(C)C)C(=O)N[C@@H](CC(C)C)C(=O)N[C@@H](CCC(=O)O)C(=O)N[C@@H](CCC(N)=O)C(=O)N[C@@H](CCC(=O)O)C(=O)N[C@@H](CCCCN)C(=O)N[C@@H](CCC(N)=O)C(=O)N[C@@H](CCCCN)C(=O)NC(C)(C)C(=O)N[C@@H](CCC(N)=O)C(=O)N[C@@H](CCCNC(=N)N)C(=O)N[C@@H](CCC(=O)O)C(=O)N[C@@H](CCC(N)=O)C(=O)N[C@@H](C)C(=O)N[C@@H](CCC(=O)O)C(=O)N[C@H](C(=O)N[C@@H](CC(N)=O)C(=O)N[C@@H](CCCCN)C(=O)N[C@@H](CCC(N)=O)C(=O)N[C@H](C(=O)N[C@@H](CC(C)C)C(=O)N[C@@H](C)C(=O)N[C@@H](CCC(N)=O)C(=O)N[C@H](C(N)=O)C(C)C)[C@@H](C)CC)[C@@H](C)O)[C@@H](C)CC)[C@@H](C)CC)C(C)C)C(C)C
Turning to B4, the EC50 [nM], 0% HSA stood at 0.14 nM and the EC50 [nM], 0.1% HSA worked out at 18.5 nM.

B5: SEQ ID NO: 5 (peptide)
peptide: IVLSLDVPIGLK([γGlu-Palmitoyl])QKLLKQQRQRKERQQAETNARILARV-NH2
modifications: N-terminus assumed
SMILES: CCCCCCCCCCCCCCCC(=O)N[C@@H](CCC(=O)NCCCC[C@H](NC(=O)[C@H](CC(C)C)NC(=O)CNC(=O)[C@@H](NC(=O)[C@@H]1CCCN1C(=O)[C@@H](NC(=O)[C@H](CC(=O)O)NC(=O)[C@H](CC(C)C)NC(=O)[C@H](CO)NC(=O)[C@H](CC(C)C)NC(=O)[C@@H](NC(=O)[C@@H](N)[C@@H](C)CC)C(C)C)C(C)C)[C@@H](C)CC)C(=O)N[C@@H](CCC(N)=O)C(=O)N[C@@H](CCCCN)C(=O)N[C@@H](CC(C)C)C(=O)N[C@@H](CC(C)C)C(=O)N[C@@H](CCCCN)C(=O)N[C@@H](CCC(N)=O)C(=O)N[C@@H](CCC(N)=O)C(=O)N[C@@H](CCCNC(=N)N)C(=O)N[C@@H](CCC(N)=O)C(=O)N[C@@H](CCCNC(=N)N)C(=O)N[C@@H](CCCCN)C(=O)N[C@@H](CCC(=O)O)C(=O)N[C@@H](CCCNC(=N)N)C(=O)N[C@@H](CCC(N)=O)C(=O)N[C@@H](CCC(N)=O)C(=O)N[C@@H](C)C(=O)N[C@@H](CCC(=O)O)C(=O)N[C@H](C(=O)N[C@@H](CC(N)=O)C(=O)N[C@@H](C)C(=O)N[C@@H](CCCNC(=N)N)C(=O)N[C@H](C(=O)N[C@@H](CC(C)C)C(=O)N[C@@H](C)C(=O)N[C@@H](CCCNC(=N)N)C(=O)N[C@H](C(N)=O)C(C)C)[C@@H](C)CC)[C@@H](C)O)C(=O)O
In turn, B5 came in with an EC50 [nM], 0% HSA of 0.04 nM.

B6: SEQ ID NO: 78 (peptide)
peptide: IVLSLDVPTKLK([AEEA-AEEA-γGlu-C18 diacid])QILLEQERQKKQREQAETN[Aib]QILAQV-NH2
modifications: N-terminus assumed
SMILES: CC[C@H](C)[C@H](N)C(=O)N[C@H](C(=O)N[C@@H](CC(C)C)C(=O)N[C@@H](CO)C(=O)N[C@@H](CC(C)C)C(=O)N[C@@H](CC(=O)O)C(=O)N[C@H](C(=O)N1CCC[C@H]1C(=O)N[C@H](C(=O)N[C@@H](CCCCN)C(=O)N[C@@H](CC(C)C)C(=O)N[C@@H](CCCCNC(=O)COCCOCCNC(=O)COCCOCCNC(=O)CC[C@H](NC(=O)CCCCCCCCCCCCCCCCC(=O)O)C(=O)O)C(=O)N[C@@H](CCC(N)=O)C(=O)N[C@H](C(=O)N[C@@H](CC(C)C)C(=O)N[C@@H](CC(C)C)C(=O)N[C@@H](CCC(=O)O)C(=O)N[C@@H](CCC(N)=O)C(=O)N[C@@H](CCC(=O)O)C(=O)N[C@@H](CCCNC(=N)N)C(=O)N[C@@H](CCC(N)=O)C(=O)N[C@@H](CCCCN)C(=O)N[C@@H](CCCCN)C(=O)N[C@@H](CCC(N)=O)C(=O)N[C@@H](CCCNC(=N)N)C(=O)N[C@@H](CCC(=O)O)C(=O)N[C@@H](CCC(N)=O)C(=O)N[C@@H](C)C(=O)N[C@@H](CCC(=O)O)C(=O)N[C@H](C(=O)N[C@@H](CC(N)=O)C(=O)NC(C)(C)C(=O)N[C@@H](CCC(N)=O)C(=O)N[C@H](C(=O)N[C@@H](CC(C)C)C(=O)N[C@@H](C)C(=O)N[C@@H](CCC(N)=O)C(=O)N[C@H](C(N)=O)C(C)C)[C@@H](C)CC)[C@@H](C)O)[C@@H](C)CC)[C@@H](C)O)C(C)C)C(C)C
Molecule B6 returned an EC50 [nM], 0% HSA of 10.6 nM.
